The text below walks through data of patent US20230414780A1 (VECT HORUS, published 2023).

Numbering of substitutions follows the chain as printed.

Experiment [1] concerns the target T1, human TfR ectodomain fused to a mouse IgG1 Fc fragment (human, UniProt P02786 89-760).
T1 construct: extracellular domain; ectodomain fused to the N-terminal end of the Fc, made in-house; not shown: mouse IgG1 Fc fragment
Nature of the experiment: SPR, kinetic. An outline of the steps: (§1)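 TfR–mouse Fc fusions, produced in-house, captured on HC 1500M or CM5 chips either directly or via immobilized anti-mouse IgG. VHHs injected in single-cycle or multiple-cycle kinetic mode on Biacore T200.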
(In general: In SPR one partner is held on a chip, and binding of the other changes the refractive index at the surface.)

The target of experiment [2] is T2, human transferrin receptor (hTfR) fused to EGFP, on CHO cells (human, UniProt P02786 1-760).
T2 construct: whole, on cells; also called human TfR; CHO-hTfR-EGFP; not shown: EGFP from pEGFP-C1 vector, fused to the N-terminal (intracellular) end of hTfR
T2 sequence (P02786 whole entry, the tested form may be a part): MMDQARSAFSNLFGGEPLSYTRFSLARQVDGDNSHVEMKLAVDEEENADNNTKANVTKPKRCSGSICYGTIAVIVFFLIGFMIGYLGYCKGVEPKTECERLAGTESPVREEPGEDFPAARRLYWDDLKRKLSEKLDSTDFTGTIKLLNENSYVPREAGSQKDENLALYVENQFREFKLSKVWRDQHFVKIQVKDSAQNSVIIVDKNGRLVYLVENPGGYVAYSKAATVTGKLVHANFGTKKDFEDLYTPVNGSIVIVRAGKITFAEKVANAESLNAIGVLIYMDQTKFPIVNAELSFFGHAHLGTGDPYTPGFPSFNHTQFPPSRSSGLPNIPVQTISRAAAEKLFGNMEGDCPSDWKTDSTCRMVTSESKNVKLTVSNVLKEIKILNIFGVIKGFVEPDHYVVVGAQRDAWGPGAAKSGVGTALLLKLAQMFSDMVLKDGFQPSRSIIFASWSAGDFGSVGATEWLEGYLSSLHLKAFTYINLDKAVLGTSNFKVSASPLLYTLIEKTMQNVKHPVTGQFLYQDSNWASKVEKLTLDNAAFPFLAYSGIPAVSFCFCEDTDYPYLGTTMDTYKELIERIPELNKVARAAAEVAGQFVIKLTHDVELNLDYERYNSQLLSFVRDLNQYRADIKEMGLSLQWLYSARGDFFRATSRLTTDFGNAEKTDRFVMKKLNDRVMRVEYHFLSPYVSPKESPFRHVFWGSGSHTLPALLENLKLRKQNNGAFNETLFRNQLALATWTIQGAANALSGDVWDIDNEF
Put plainly: flow cytometry on CHO-hTfR-EGFP cells, 1 hr at 4 C, anti-6His + Alexa647 anti-mouse; apparent Kd, mean ± SEM of 3 experiments. The procedure: (§2) (A) CHO-hTfR-EGFP and CHO-mTfR-EGFP cells were incubated 1 hr at 4° C. with various concentrations of VHHs, detected with a mouse anti-6His (1/1000) and an Alexa647-conjugated anti-mouse secondary antibody (1/400). Measurements were performed using flow cytometry. The ratio of fluorescence intensity for each point was normalized with the corresponding EGFP signal (receptor expression) and gave rise to the arbitrary unit. Data are presented as mean±SEM of 3 independent experiments. (B) Characteristics of VHHs: Molecular Weight (Da); Theoretical pI; Apparent Kd on human TfR (nM); Apparent Kd on mouse TfR (nM). Data are presented as mean±SEM of 3 independent experiments. NB: no binding, LB: low binding.
All experiments were performed in 96 well plates using 2×10⁵ cells/well, at 4° C. with shaking. CHO cell lines stably expressing the hTfR or the mTfR fused to EGFP or CHO WT cells were saturated with PBS/BSA 2% solution during 30 min to avoid non-specific binding, followed by incubation with purified VHHs at concentrations ranging from 50 μM to 5 μM for 1 hr. After one wash in PBS/BSA 2%, cells were incubated for 1 hr with an anti-6His tag antibody (mouse), washed twice with PBS/BSA 2%, and incubated for 45 min with an Alexa647-conjugated anti-mouse secondary antibody. […] Fluorescence levels were assessed using an Attune NxT Flow Cytometer (Thermo Fisher Scientific).
On the technique in general: A flow cytometer gives signals particle by particle.

Experiment [3] addresses T1, human TfR ectodomain fused to a mouse …. Put plainly: SPR, at equilibrium. Summed up:
as §1

Experiment [4] deals with T3, mouse transferrin receptor (mTfR) fused to EGFP, on CHO cells (mouse, UniProt Q62351 1-763).
T3 construct: whole, on cells; also called mouse TfR; CHO-mTfR-EGFP; not shown: EGFP
T3 sequence (Q62351 whole entry, the tested form may be a part): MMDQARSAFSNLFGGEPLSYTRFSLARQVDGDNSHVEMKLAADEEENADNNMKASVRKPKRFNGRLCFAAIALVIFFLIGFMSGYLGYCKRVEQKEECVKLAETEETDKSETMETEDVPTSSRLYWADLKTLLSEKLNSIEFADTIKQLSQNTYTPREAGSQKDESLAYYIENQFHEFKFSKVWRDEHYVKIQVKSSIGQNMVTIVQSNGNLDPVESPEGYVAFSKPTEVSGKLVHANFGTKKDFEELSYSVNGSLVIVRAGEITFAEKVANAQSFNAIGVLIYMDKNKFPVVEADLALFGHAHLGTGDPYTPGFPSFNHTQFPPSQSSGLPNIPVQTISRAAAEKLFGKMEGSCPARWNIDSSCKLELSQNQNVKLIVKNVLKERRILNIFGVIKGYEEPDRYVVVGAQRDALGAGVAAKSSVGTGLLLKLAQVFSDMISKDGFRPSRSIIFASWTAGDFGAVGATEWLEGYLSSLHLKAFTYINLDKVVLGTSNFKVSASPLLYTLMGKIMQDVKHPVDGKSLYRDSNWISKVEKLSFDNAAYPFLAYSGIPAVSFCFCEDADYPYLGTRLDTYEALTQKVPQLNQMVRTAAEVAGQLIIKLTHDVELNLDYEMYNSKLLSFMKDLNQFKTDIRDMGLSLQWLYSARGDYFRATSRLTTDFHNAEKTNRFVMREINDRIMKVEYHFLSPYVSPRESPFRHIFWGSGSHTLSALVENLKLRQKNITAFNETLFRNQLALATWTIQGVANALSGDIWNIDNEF
Put plainly: apparent Kd, flow cytometry, CHO cells. How it is done: (§3) All experiments were performed in 96 well plates using 2×10⁵ cells/well, at 4° C. with shaking. CHO cell lines stably expressing the hTfR or the mTfR fused to EGFP or CHO WT cells were saturated with PBS/BSA 2% solution during 30 min to avoid non-specific binding, followed by incubation with purified VHHs at concentrations ranging from 50 μM to 5 μM for 1 hr. After one wash in PBS/BSA 2%, cells were incubated for 1 hr with an anti-6His tag antibody (mouse), washed twice with PBS/BSA 2%, and incubated for 45 min with an Alexa647-conjugated anti-mouse secondary antibody. After two last washes in PBS/BSA 2%, cells were fixed by incubation for 15 min with PBS/PFA 2%, washed once with PBS and finally resuspended in PBS and stored at 4° C. Fluorescence levels were assessed using an Attune NxT Flow Cytometer (Thermo Fisher Scientific). […] No labeling of the CHO WT control cells was detected with all the tested VHHs (not shown). The VHH K_{d app} were calculated using GraphPad Prism software (FIG. 11-B; 12-B).

Experiment [5] deals with T2, human transferrin receptor (hTfR) fused …. Put plainly: flow cytometry on CHO-hTfR-EGFP cells, 1 hr at 4 C, anti-6His + Alexa647 anti-mouse; nonlinear fit. How it is done:
CHO-hTfR-EGFP cells were incubated 1 hr at 4° C. with various concentrations of the indicated compounds. Detection of VHHs was performed using a primary mouse anti-6His (1/1000) and an Alexa647-conjugated anti-mouse secondary antibody (1/400). Measurements of cell-surface signal associated with VHH were performed using flow cytometry. The results are expressed as the ratio of Alexa647-associated fluorescence intensity of test compounds to that of background fluorescence.

Experiment [6] has the same target. Nature of the experiment: flow cytometry on CHO-hTfR-EGFP cells, 1 hr at 4 C, anti-6His + Alexa647 anti-mouse; apparent Kd, mean ± SEM of 3 experiments. The procedure:
(§4) (A) CHO-hTfR-EGFP and CHO-mTfR-EGFP cells were incubated 1 hr at 4° C. with various concentrations of VHHs, detected with a mouse anti-6His (1/1000) and an Alexa647-conjugated anti-mouse secondary antibody (1/400). Measurements were performed using flow cytometry.
as §3
This is another data set of the same source.

Experiment [7] shares this target. Nature of the experiment: apparent Kd, flow cytometry, CHO cells. How it is done:
as §3

The target in experiment [8] is T3, mouse transferrin receptor (mTfR) fused …. Nature of the experiment: flow cytometry on CHO-mTfR-EGFP cells, 1 hr at 4 C, anti-6His + Alexa647 anti-mouse; apparent Kd, mean ± SEM of 3 experiments. How it is done: as §4, §3
Experiment [9] shares this target. Nature of the experiment: apparent Kd, cell-based assay.
For experiment [10] the target is unchanged. Put plainly: flow cytometry on CHO-mTfR-EGFP cells, 1 hr at 4 C, Alexa647 anti-mouse; apparent Kd, mean ± SEM of 3 experiments. The procedure: as §2, with “FIGS. 13A-13B: Apparent Kd determination of 13C3-HC-VHH fusions on hTfR- and mTfR-expressing CHO cell lines. (A)” for “(A)”, “13C3 fusions and” for “VHHs,”, “with” for “with a mouse anti-6His (1/1000) and”, “anti-mouse” for “anti-mouse secondary”, “13C3 fusions:” for “VHHs:”, “(Da);” for “(Da); Theoretical pI;”
All experiments were performed in 96 well plates using 2×10⁵ cells/well, at 4° C. with shaking. CHO cell lines stably expressing the hTfR or the mTfR fused to EGFP or CHO WT cells were saturated with PBS/BSA 2% solution during 30 min to avoid non-specific binding, followed by incubation with purified VHHs at concentrations ranging from 50 μM to 5 μM for 1 hr. After one wash in PBS/BSA 2%, cells were incubated for 1 hr with an anti-6His tag antibody (mouse), washed twice with PBS/BSA 2%, and incubated for 45 min with an Alexa647-conjugated anti-mouse secondary antibody. After two last washes in PBS/BSA 2%, cells were fixed by incubation for 15 min with PBS/PFA 2%, washed once with PBS and finally resuspended in PBS and stored at 4° C. Fluorescence levels were assessed using an Attune NxT Flow Cytometer (Thermo Fisher Scientific).

Experiment [11] has the same target. Put plainly: flow cytometry, CHO cells.
Experiment [12] shares this target. Nature of the experiment: cell-based flow cytometry assay on mTfR-expressing cells (as in Example XI); Kd/app.
For experiment [13] the target is unchanged. Put plainly: cell-based flow cytometry assay on mTfR-expressing cells (as in Example XI).

T1 sequence (P02786 89-760): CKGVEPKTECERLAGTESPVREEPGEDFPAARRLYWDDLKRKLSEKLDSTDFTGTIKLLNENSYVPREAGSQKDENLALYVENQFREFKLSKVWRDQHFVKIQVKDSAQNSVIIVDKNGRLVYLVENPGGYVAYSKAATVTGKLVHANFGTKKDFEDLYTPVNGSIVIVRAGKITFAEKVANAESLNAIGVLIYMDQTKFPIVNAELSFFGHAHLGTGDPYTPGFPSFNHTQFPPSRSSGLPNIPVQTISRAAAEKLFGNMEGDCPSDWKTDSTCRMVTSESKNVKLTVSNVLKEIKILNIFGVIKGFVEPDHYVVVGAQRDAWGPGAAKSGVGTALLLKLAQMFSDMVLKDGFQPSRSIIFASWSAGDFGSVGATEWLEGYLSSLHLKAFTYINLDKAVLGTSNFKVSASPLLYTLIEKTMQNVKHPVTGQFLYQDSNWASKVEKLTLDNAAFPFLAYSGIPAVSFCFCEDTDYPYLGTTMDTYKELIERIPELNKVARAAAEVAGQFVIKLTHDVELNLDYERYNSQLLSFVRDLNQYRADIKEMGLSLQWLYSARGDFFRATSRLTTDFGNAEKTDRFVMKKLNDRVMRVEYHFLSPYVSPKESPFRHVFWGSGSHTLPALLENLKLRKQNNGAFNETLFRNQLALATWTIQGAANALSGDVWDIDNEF

B1: VHH A5 (C5^V5) (VHH)
VHH: EVQLVESGGGVVQPGGSLKLSCVASGTDFSINFIRWYRQAPGKQREFVAGFTATGNTNYADSMKGRFTISRDNTKNAVYLQIDSLKPEDTAVYYCAMLDKWGQGTQVTVSS
One may read the koff as the first-order rate constant of dissociation. A word on the kon: it is the second-order rate constant of association. A higher kon goes with fast association. In the case of B1, the Kd in experiment [1] was found to be 154 nM; in experiment [2] it was 25 nM; in experiment [3], 180 nM; in [4] it was 604 nM. This molecule showed a dissociation rate constant (koff) in experiment [1] of 0.0509 s⁻¹. The same molecule came in with a kon in experiment [1] of 332000 M⁻¹ s⁻¹.

B2: VHH A-NODAGA bioconjugate (VHH, not shown: small tags and cut ends)
VHH: B1 VHH with A96Y
modifications: NODAGA-BCN clicked to an azido linker on the Gln of the C-terminal Q-tag
In the case of B2, the Kd in [5] stood at 7.72 nM.

B3: VHH A17 (C5^V17) (VHH)
VHH: B1 VHH with A96Y, L98I
For the molecule B3, the Kd in experiment [6] is 5.3 nM; in experiment [7], 3 to 4 nM; in [8] it was 208 nM.

B4: VHH A19 (C5^V19) (VHH)
VHH: B1 VHH with A96Y, D99E
As to B4, the Kd was found to be 22.3 nM in [1], 9.2 nM in experiment [6], 7.13 nM in experiment [3] and 210 nM in experiment [8]. The koff in experiment [1] is 0.0097 s⁻¹. Besides, the kon in experiment [1] is 426000 M⁻¹ s⁻¹.

B5: B8 h1-NT(8-13) (VHH)
VHH: EVQLVESGGGVVQPGGSLRLSCAASGEIFSINFMRWYRQAPGKGLEWVAGFTRDGSTNYPDSVKGRFTISRDNAKNTVYLQMNSLRPEDTAVYYCYMLDTWGQGTQVTVSS
With B5, the Kd in [9] was determined as 2.8 nM.

B6: B8V1-NT(8-13) (VHH)
VHH: B5 VHH with S25D, G44Q, L45R, V63A, M82I, N83D, R86K
Consider B6, for which, in [9], the Kd was determined as 8.3 nM.

B7: 13C3-HC-VHH A1 (antibody)
heavy: QVQLQQSGPELVRPGVSVKISCKGSGYTFTDYAMHWVKQSHAKSLEWIGVISTKYGKTNYNQKFKGKATMTVDKSSSTAYMELARLTSEDSAIYYCARGDDGYSWGQGTSVTVSSAKTTPPSVYPLAPGSAAQTNSMVTLGCLVKGYFPEPVTVTWNSGSLSSGVHTFPAVLQSDLYTLSSSVTVPSSTWPSETVTCNVAHPASSTKVDKKIVPRDCGCKPCICTVPEVSSVFIFPPKPKDVLTITLTPKVTCVVVDISKDDPEVQFSWFVDDVEVHTAQTQPREEQFNSTFRSVSELPIMHQDWLNGKEFKCRVNSAAFPAPIEKTISKTKGRPKAPQVYTIPPPKEQMAKDKVSLTCMITDFFPEDITVEWQWNGQPAENYKNTQPIMDTDGSYFVYSKLNVQKSNWEAGNTFTCSVLHEGLHNHHTEKSLSHSPGGGGGMAEVQLVESGGGVVQPGGSLKLSCVASGADFSINFIRWYRQAPGKQREFVAGFTATGNTNYADSMKGRFTISRDNTKNAVYLQIDSLKPEDTAVYYCYMLDKWGQGTQVTVSSAAA
light: DVVMTQTPLSLPVSLGDQASISCRSGQSLVHSNGNTYLHWYLQKPGQSPKLLIYTVSNRFSGVPDRFSGSGSGSDFTLKISRVEAEDLGVYFCSQNTFVPWTFGGGTKLEIKRADAAPTVSIFPPSSEQLTSGGASVVCFLNNFYPKDINVKWKIDGSERQNGVLNSWTDQDSKDSTYSMSSTLTLTKDEYERHNSYTCEATHKTSTSPIVKSFNRNEC
Take B7: the Kd in experiment [10] was determined as 9.4 nM. Also, in experiment [11], the “Bmax, fold lower than 13C3-HC-VHH A” value is 2 fold.

B8: 13C3-HC-C5h16 (antibody)
heavy: QVQLQQSGPELVRPGVSVKISCKGSGYTFTDYAMHWVKQSHAKSLEWIGVISTKYGKTNYNQKFKGKATMTVDKSSSTAYMELARLTSEDSAIYYCARGDDGYSWGQGTSVTVSSAKTTPPSVYPLAPGSAAQTNSMVTLGCLVKGYFPEPVTVTWNSGSLSSGVHTFPAVLQSDLYTLSSSVTVPSSTWPSETVTCNVAHPASSTKVDKKIVPRDCGCKPCICTVPEVSSVFIFPPKPKDVLTITLTPKVTCVVVDISKDDPEVQFSWFVDDVEVHTAQTQPREEQFNSTFRSVSELPIMHQDWLNGKEFKCRVNSAAFPAPIEKTISKTKGRPKAPQVYTIPPPKEQMAKDKVSLTCMITDFFPEDITVEWQWNGQPAENYKNTQPIMDTDGSYFVYSKLNVQKSNWEAGNTFTCSVLHEGLHNHHTEKSLSHSPGGGGGMAEVQLVESGGGLVQPGGSLRLSCAASGTDFSINFIRWYRQAPGKGLEFVAGFTATGNTNYADSVKGRFTISRDNSKNTLYLQMNSLRAEDTAVYYCYMLDKWGQGTLVTVSSAAA
light: B7 light
For the molecule B8, the Kd in experiment [12] was determined as 19.6 nM. Further, the “binding potential, fold lower than 13C3-HC-C5h20” value in [11] was around 3 fold. In experiment [13], this molecule showed a Bmax of 381 RFI.
